The record followed here is patent CN1886424A (dated 2006).

In assay [1] the target is T1, 纯化的/生物素化的全长人IGF-I受体 (purified, biotinylated full-length human IGF-I receptor) (human, UniProt P08069 31-1367, biotinylated with PEO-maleimide-biotin (Kd and competition ELISAs); unmodified when coated directly).
T1 construct: mature; also called 生物素化的IGF-I受体; 纯化的人IGF-I受体
The experiment in a line: ELISA titration of the Fab on human IGF-I receptor. For orientation: ELISA stands for enzyme-linked immunosorbent assay.

For assay [2], the target named is T1, 纯化的/生物素化的全长人IGF-I受体 (purified, …). The experiment in a line: ELISA titration on biotinylated human IGF-I receptor captured on streptavidin, one-site non-linear regression.
Assay [3] has as its target 人肿瘤细胞上的人IGF-I受体 (endogenous human IGF-I receptor of human tumour cells: MCF-7, NCI-H838, SaOS-2 and others) (human) (UniProt P08069). The experiment in a line: cell-based or functional assay.
Assay [4] concerns the target 过量表达于3T3样细胞上的人Y1251F IGF-I受体 (human IGF-I receptor with Y1251F mutation on 3T3-like cells) (human) (UniProt P08069). In words: cell ELISA on dried cells overexpressing human Y1251F IGF-I receptor, 12 min colour development.
Assay [5] deals with 人肿瘤细胞上的人IGF-I受体 (endogenous human IGF-I receptor of human tumour cells: MCF-7, NCI-H838, SaOS-2 and others) (human) (UniProt P08069). In words: displacement of biotin-IGF-I from MCF-7 cells at 4℃, 2 h; capture ELISA.
For assay [6] the target is unchanged. The experiment in a line: displacement of biotin-IGF-I from MCF-7 cells at 37℃, 30 min, 10-100 μg/mL antibody; capture ELISA.

T1 sequence (P08069 31-1367 limits assumed): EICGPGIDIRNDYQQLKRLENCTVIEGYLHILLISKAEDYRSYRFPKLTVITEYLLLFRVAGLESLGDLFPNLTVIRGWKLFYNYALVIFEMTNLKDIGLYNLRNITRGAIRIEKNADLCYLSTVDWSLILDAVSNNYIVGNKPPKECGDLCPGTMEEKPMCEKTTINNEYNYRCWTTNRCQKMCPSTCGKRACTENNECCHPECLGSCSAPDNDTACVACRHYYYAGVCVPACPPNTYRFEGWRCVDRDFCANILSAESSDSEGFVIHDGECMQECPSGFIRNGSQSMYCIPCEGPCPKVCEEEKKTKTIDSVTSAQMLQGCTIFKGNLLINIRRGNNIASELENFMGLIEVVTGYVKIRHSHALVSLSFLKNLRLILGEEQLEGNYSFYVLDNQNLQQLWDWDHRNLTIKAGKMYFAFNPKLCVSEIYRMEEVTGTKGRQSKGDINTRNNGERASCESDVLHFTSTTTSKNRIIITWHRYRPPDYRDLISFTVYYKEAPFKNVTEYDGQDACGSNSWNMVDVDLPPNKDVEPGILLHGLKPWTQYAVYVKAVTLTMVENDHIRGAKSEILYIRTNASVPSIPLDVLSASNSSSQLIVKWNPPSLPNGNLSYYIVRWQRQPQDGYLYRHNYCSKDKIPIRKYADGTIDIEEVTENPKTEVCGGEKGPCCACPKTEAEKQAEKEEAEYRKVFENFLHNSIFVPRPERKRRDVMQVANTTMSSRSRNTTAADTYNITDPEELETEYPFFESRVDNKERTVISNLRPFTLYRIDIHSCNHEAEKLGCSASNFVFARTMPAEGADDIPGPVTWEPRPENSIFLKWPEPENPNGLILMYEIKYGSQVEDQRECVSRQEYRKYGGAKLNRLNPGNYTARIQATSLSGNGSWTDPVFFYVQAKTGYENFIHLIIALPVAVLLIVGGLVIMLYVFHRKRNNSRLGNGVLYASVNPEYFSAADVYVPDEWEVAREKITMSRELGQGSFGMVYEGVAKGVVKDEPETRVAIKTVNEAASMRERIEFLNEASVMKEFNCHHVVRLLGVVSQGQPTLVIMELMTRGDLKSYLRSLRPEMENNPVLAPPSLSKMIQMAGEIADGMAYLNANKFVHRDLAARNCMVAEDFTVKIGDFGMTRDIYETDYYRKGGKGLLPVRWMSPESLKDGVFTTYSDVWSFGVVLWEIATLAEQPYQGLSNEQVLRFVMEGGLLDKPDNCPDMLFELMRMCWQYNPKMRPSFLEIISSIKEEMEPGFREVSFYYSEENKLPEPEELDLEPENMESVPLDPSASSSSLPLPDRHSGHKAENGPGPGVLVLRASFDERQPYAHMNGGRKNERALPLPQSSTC

B1: EM164抗体的Fab片段 (Fab fragment of EM164, papain digest) (Fab, V domains shown)
VH: QVQLQQSGAELVKPGASVKLSCKASGYTFTSYWMHWVKQRPGQGLEWIGEINPSNGRTNYNEKFKRKATLTVDKSSSTAYMQLSSLTSEDSAVYYFARGRPDYYGSSKWYFDVWGAGTTVTVSS
VL: DVLMTQTPLSLPVSLGDQASISCRSSQSIVHSNVNTYLEWYLQKPGQSPKLLIYKVSNRFSGVPDRFSGSGSGTDFTLRISRVEAEDLGIYYCFQGSHVPPTFGGGTKLEIKR
notes: also called EM164 Fab
The Kd is a measure of binding affinity in units of concentration. Read a low Kd as higher affinity. Turning to B1, binding in assay [1] was put at a Kd of 0.3 nM.

B2: 鼠抗IGF-I受体抗体EM164 (murine anti-IGF-I receptor antibody EM164) (antibody, V domains shown)
VH: QVQLQQSGAELVKPGASVKLSCKASGYTFTSYWMHWVKQRPGQGLEWIGEINPSNGRTNYNEKFKRKATLTVDKSSSTAYMQLSSLTSEDSAVYYFARGRPDYYGSSKWYFDVWGAGTTVTVSS
VL: DVLMTQTPLSLPVSLGDQASISCRSSQSIVHSNVNTYLEWYLQKPGQSPKLLIYKVSNRFSGVPDRFSGSGSGTDFTLRISRVEAEDLGIYYCFQGSHVPPTFGGGTKLEIKR
notes: Purified from hybridoma; also called EM164抗体; muEM164
Regarding B2, the Kd in assay [2] stood at 0.1 nM. In assay [3], the MCF-7 cell cycle, percent of cells in G0/G1 phase with IGF-I (20 ng/mL) plus EM164 (20 μg/mL); 50% without EM164 stood at 77%; the MCF-7 cell cycle, percent of cells in S phase with IGF-I (20 ng/mL) plus EM164 (20 μg/mL); 41% without EM164 amounted to 9%; the percent inhibition of IGF-I-stimulated growth in serum-free medium, MTT assay, A 375 (melanoma) amounted to 90%; the percent inhibition of IGF-I-stimulated growth in serum-free medium, MTT assay, A431 (epidermoid) worked out at 85%. In assay [3], this molecule gave a percent inhibition of IGF-I-stimulated growth in serum-free medium, MTT assay, Calu-6 of 85%; a percent inhibition of IGF-I-stimulated growth in serum-free medium, MTT assay, Colo 205 (colon) of 50%; a percent inhibition of IGF-I-stimulated growth in serum-free medium, MTT assay, HT-29 of 60%; a percent inhibition of IGF-I-stimulated growth in serum-free medium, MTT assay, SK-Mel-37 of 85%. This molecule also gave a percent inhibition of IGF-I-stimulated growth in serum-free medium, MTT assay, SK-N-SH (neuroblastoma) in assay [3] of 85%. In assay [4], the absorbance (cell ELISA signal) (absorbance units) turned out to be 0.88. The percent displacement of pre-bound biotinylated IGF-I in assay [5] was determined as 50%. This molecule also displayed a percent displacement of pre-bound biotinylated IGF-I in assay [6] of 90%.
